The data set can be described thus: Isoelectric point of gelatin. In kind it is physicochemical. To be noted: recombinant gelatin CBE3.

Regarding “CBE3: recombinant gelatin, SEQ ID NO: 1, Gly-Ala-Pro[(Gly-X-Y)63]3Gly, 571 amino acids, 12 RGD sequences”, the Isoelectric point turned out to be 9.34.

(Values after patent publication US8961929B2, “Targeting agent for tumor site” (FUJIFILM Corporation, priority 2010, dated 2015).)
